Experimental findings from doi:10.1101/2020.06.22.166033 are described below.

This test concerns the target biotinylated SARS-CoV-2 S2P probe (SARS-CoV-2-S2P-AVI) (SARS-CoV-2 | T4 phage) (UniProt P0DTC2). Briefly: SPR. Background: Surface plasmon resonance follows binding to a sensor surface in real time, without labels.

One may read the Kd as the concentration at which binding is half-saturated. A low value points to tighter binding. With CR3022 Fab, the Kd was 91.4 nM.
